The results in this text go back to article PMC10514974, “The NAC transcription factor MdNAC4 positively regulates nitrogen deficiency-induced leaf senescence by enhancing ABA biosynthesis in apple”.

What all share (details): protein: recombinant; tags: GST (pGEX4T-1); label: biotin; blunt
Series [1] has as its target T1, MdNAC4-GST (apple, UniProt B6DXL4 1-350).
T1 sequence: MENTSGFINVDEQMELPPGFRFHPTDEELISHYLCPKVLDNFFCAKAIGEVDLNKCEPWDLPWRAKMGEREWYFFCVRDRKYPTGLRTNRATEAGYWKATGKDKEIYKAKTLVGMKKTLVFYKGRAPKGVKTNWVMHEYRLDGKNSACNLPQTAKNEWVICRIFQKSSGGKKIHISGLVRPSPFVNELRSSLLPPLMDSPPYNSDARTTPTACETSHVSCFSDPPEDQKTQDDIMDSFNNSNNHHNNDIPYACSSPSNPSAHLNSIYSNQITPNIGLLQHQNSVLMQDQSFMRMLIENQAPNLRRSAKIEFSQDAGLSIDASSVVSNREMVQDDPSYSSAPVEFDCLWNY
As to the kind of experiment: EMSA; LightShift binding buffer, 30 min at 24 °C in the dark; biotin-labeled probes; salt and pH not stated. (In general: In EMSA bound probe runs differently from free probe, usually more slowly.)

Series [2] concerns the target T1, MdNAC4-GST. As to the kind of experiment: EMSA; unlabeled competitor 5x, 50x, 100x abolished binding; LightShift binding buffer, 30 min at 24 °C in the dark; biotin-labeled probes; salt and pH not stated.
The target of series [3] is T1, MdNAC4-GST. Kind of series: EMSA; unlabeled competitor 5x, 50x, 100x progressively abolished binding; LightShift binding buffer, 30 min at 24 °C in the dark; biotin-labeled probes; salt and pH not stated.

B1: MdNCED2 mutant probe (dsDNA)
DNA 1: TAAATCCACGACGGGGTCTCTCATG
DNA 2: CATGAGAGACCCCGTCGTGGATTTA
For B1, the binding result with MdNAC4-GST [1] is on record as “no binding”.

B2: MdSAG39 mutant probe (dsDNA)
DNA 1: TTTTGTAAGGGACGGACCACGCTGA
DNA 2: TCAGCGTGGTCCGTCCCTTACAAAA
On to B2, for which the binding result in the series with MdNAC4-GST [1] is on record as “no binding”.

B3: MdSAG39 promoter probe P2 (ABRE) (dsDNA)
DNA 1: TTTTGTAAGGCACGTACCACGCTGA
DNA 2: TCAGCGTGGTACGTGCCTTACAAAA
For B3, in the series with MdNAC4-GST [2], the binding result was “binds”.

B4: MdNCED2 promoter probe P4 (ABRE) (dsDNA)
DNA 1: TAAATCCACCACGTGGTCTCTCATG
DNA 2: CATGAGAGACCACGTGGTGGATTTA
As to B4, the binding result in the series with MdNAC4-GST [3] is listed as “binds”.
